Experiments:
mouse oocytes = experiment: AURA inhibition in mouse oocytes, NUMA enrichment at spindle poles; format: cell-based; details: constitutive treatment, 500 nM; data not shown
Text: aMTOCs enrich several regulatory kinases at the spindle poles in mouse oocytes (26). The inventors considered that AURA, which is an essential kinase for aMTOC functions (43, 44) and can phosphorylate NUMA (45), negatively regulates NUMA enrichment at microtubule minus-ends in mouse oocytes. […] To confirm that NUMA enrichment is regulated by AURA-dependent phosphorylation, the inventors depleted endogenous NUMA by follicle RNAi (39) and re-expressed NUMA with mutations at the AURA phosphorylation site S1969. […] Together, the inventors infer that AURA phosphorylation negatively regulates NUMA enrichment at microtubule minus-ends in mouse oocytes. All drugs were prepared in DMSO (Sigma-Aldrich) as 1000× stocks. […] Specific parameters used were: 0.1 (for microtubule packing index) or 1.0 (for SD of fluorescence intensity within spindle isosurface) μm for smoothing size, no background subtraction, 500-750 and 1000-1750 μm^3 for minimum and maximum expected total volume of surface object, respectively. SD of fluorescence intensity, volume and volume of the object-oriented minimum bounding box for the spindle isosurface were exported into Excel. Microtubule packing index was calculated by dividing the volume of spindle isosurface by the volume of the object-oriented minimum bounding box. […] Mean fluorescence intensity and volume of isosurfaces were exported into Excel. […]

[1] = test system: KIFC1/HSET-depleted aMTOC-free mouse oocytes; experiment: Rescue of spindle polarity in KIFC1/HSET-depleted aMTOC-free mouse oocytes (human oocyte mimics); format: cell-based
Text: This domain, together with the conserved, microtubule-binding motor domain, allows KIFC1/HSET to organize microtubules via crosslinking and/or sliding (86). To investigate the requirement of different domains in KIFC1/HSET, the inventors expressed a series of truncation mutants in aMTOC-free mouse oocytes (FIG. 7K). […] To examine whether the motor activity is dispensable for the function of KIFC1/HSET in aMTOC-free mouse oocytes, the inventors depleted endogenous KIFC1/HSET by follicle RNAi and restored expression with wild-type HSET or with HSET(N593K), which crosslinks microtubules but cannot slide (87). […] Together, the inventors infer that the appropriate level of KIFC1/HSET's crosslinking and sliding activities are required for proper bipolar spindle assembly in the absence of aMTOCs.
Mouse follicles were microinjected with 3.5 pl of siRNAs at a needle concentration of 2 μM as previously described (11). For rescue experiments, in vitro grown oocytes were microinjected with 3.5 pl of mRNAs. mClover3-HSET mRNA was microinjected at a needle concentration of 275 ng/μl, mClover3-HSET(N593K) mRNA at 275 ng/μl, mClover3-NUMA(S1955D) mRNA at 400 ng/μl, mClover3-NUMA(S1955A) mRNA at 400 ng/μl, mClover3-NUMA(SpM-4A) mRNA at 400 ng/μl, mClover3-NUMA(ΔMTBD1) mRNA at 400 ng/μl and mClover3-NUMA(ΔMTBD2) mRNA at 400 ng/μl. Oocytes were allowed to express the mRNAs for 3-4 h before release.
To obtain mouse MI spindles, oocytes were incubated at 37° C. for around 7 h after released into dbcAMP-free medium. To obtain porcine and bovine MI spindles, oocytes were incubated at 39° C./5% CO2 for around 11 and 12 h, respectively, after released into RO-3306-free medium. To obtain human MI spindles, oocytes were incubated at 37° C. for around 14 and 15 h after NEBD. None of the oocytes used for immunofluorescence analyses was subjected to live imaging before fixation.
Time-lapse movies of live mouse, bovine and porcine oocytes, and fixed human and mouse spindles were analyzed in 3D using Imaris (Bitplane). To determine the stages of meiosis and to score for spindle instability, the timing of meiotic progression was quantified relative to the timing of NEBD. NEBD was defined as the time point when the sharp boundary between the nucleus and cytoplasm disappeared in the differential interference contrast image (for mouse oocytes) or when the nucleus started collapsing in the H2B channel (for bovine and porcine oocytes). Spindle poles were defined as regions of MAP4 or MAP4-MTBD or α-tubulin intensity that prominently protruded from the main microtubule mass. In FIG. 1D, oocytes with bipolar spindle, in which ends of all microtubules converged at the poles, were scored as having focused poles. […] For mouse oocytes, unfocused poles were further classified into mildly unfocused poles (with partially separated microtubule ends) and severely unfocused poles (with fully separated microtubule ends). In FIG. 4D, bovine and porcine oocytes, in which the spindle maintained a barrel-shaped bipolar morphology and a detectable spindle axis, were scored as having stable spindle poles. Oocytes, in which the spindle lost their initial bipolarity and underwent dynamic remodeling of the pole(s) were scored as having unstable spindle poles. […] Oocytes, in which the spindle had more than two poles, were scored as having multipolar spindle. In FIG. 1H, mouse oocytes, in which the spindle had two well-defined poles, were scored as having bipolar spindle. Mouse oocytes, in which the spindle had two poorly defined poles, were scored as having apolar/round spindle. Mouse oocytes, in which the spindle had more than two poles, were scored as having multipolar spindle. […] Mouse oocytes, in which the spindle lost its barrel shape but contains several weakly associated microtubule bundles, were scored as having disorganized spindle.

Row | Molecule | NUMA enrichment at the spindle poles (mouse oocytes) | HSET to α-tubulin intensity ratio, more HSET loaded onto spindles with poorly focused poles ([1]; bipolar MI spindles rescued with wild-type HSET, FIG. 3I) [fold] | spindle polarity (manual scoring) ([1]; endogenous KIFC1/HSET depleted by follicle RNAi, expression restored from mRNA, MI oocytes, FIGS. 3, G and H) | oocytes with a bipolar spindle but poorly focused poles that lacked NUMA ([1]; oocytes rescued with wild-type HSET, FIG. 3G)
1 | COc1cc(Nc2ncc3c(n2)-c2ccc(Cl)cc2C(c2c(F)cccc2OC)=NC3)ccc1C(=O)O [MLN8237] | increased NUMA enrichment at the spindle poles |  |  | 
2 | wild-type HSET: Wild-type HSET re-expressed from microinjected mClover3-HSET mRNA in KIFC1/HSET-depleted aMTOC-free mouse oocytes (protein, left off: large carriers, Wild-type HSET re-expressed from microinjected mClover3-HSET mRNA in KIFC1/HSET-depleted aMTOC-free mouse oocytes) MDPQRSPLLEVKGNIELKRPLIKAPSQLPLSGSRLKRRPDQMEDGLEPEKKRTRGLGATTKITTSHPRVPSLTTVPQTQGQTTAQKVSKKTGPRCSTAIATGLKNQKPVPAVPVQKSGTSGVPPMAGGKKPSKRPAWDLKGQLCDLNAELKRCRERTQTLDQENQQLQDQLRDAQQQVKALGTERTTLEGHLAKVQAQAEQGQQELKNLRACVLELEERLSTQEGLVQELQKKQVELQEERRGLMSQLEEKERRLQTSEAALSSSQAEVASLRQETVAQAALLTEREERLHGLEMERRRLHNQLQELKGNIRVFCRVRPVLPGEPTPPPGLLLFPSGPGGPSDPPTRLSLSRSDERRGTLSGAPAPPTRHDFSFDRVFPPGSGQDEVFEEIAMLVQSALDGYPVCIFAYGQTGSGKTFTMEGGPGGDPQLEGLIPRALRHLFSVAQELSGQGWTYSFVASYVEIYNETVRDLLATGTRKGQGGECEIRRAGPGSEELTVTNARYVPVSCEKEVDALLHLARQNRAVARTAQNERSSRSHSVFQLQISGEHSSRGLQCGAPLSLVDLAGSERLDPGLALGPGERERLRETQAINSSLSTLGLVIMALSNKESHVPYRNSKLTYLLQNSLGGSAKMLMFVNISPLEENVSESLNSLRFASKVNQCVIGTAQANRK |  | ~2 | assembled a bipolar spindle | around 25%
